From patent US20200368345A1

Target: HLA-A*02:01 molecule (as used for thermal stability and structures) (human)
Test: thermal stability of the peptide-HLA-A*02:01 complex

Binder	Tm (temperature required to unfold 50% of the protein) of the pHLA-A*02:01 complex [° C.]
NMLSTVLGV (modifications not checked) [PB1413-421 peptide]	72
GLDNHTILL (modifications not checked) [BHA543-551 peptide]	72
